Data published in the domain aggregation screens of Martell et al. (2025).

Assay: soluble fraction after stress (log2 fold change); higher = more stays soluble; pooled small domains, quantitative proteomics
Conditions: stress: 50 degC
How it was run: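 Custom libraries of small protein domains were pooled and measured in a high-throughput format, with quantitative proteomics as the read-out. Each library was stressed at 50°C. The value is the log2 fold change in the amount of each protein that stays soluble after stress, used as a measure of aggregation propensity; higher values mean more of the protein stays soluble.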

| Sequence | soluble fraction (log2) |
| --- | --- |
| HMGGEHPIPEDWAVNEANYEHGAKFYGYTRAHVDAEAQAFRDQYAANGKKYVDWDAHFRTFMRWQNERRYG | -0.111 |
| HMDKSHYEELGVSRTATHAEIRRAYRHLMRTLHPDSNDGRVDAVRITKVNEAWNVLSQSSSRNAYDKSQV | -0.38 |
| HMARPLLSPREQDVLALIARGFSYSEVARLQAVTVHTIRTHIRNLYAKLSVHSKTEAVFEATRMGLLP | -1.63 |
| HMATSLTEQEKLIFGLLKKQSPIELSSLKEQAGLSNKKWDKAIKGLSTQQLAKVTKTENGLFVHLLQ | 0.148 |
| HMKPGTIVTGVVVDIKSDVVVVNAGLKSEGIVPIEQFRNDRGELEVAIGDEVKVALDSLENGFGETVLSRE | 0.0252 |
| HMERPKSLRELALEHLRNSIIDGSLKMGQVLSERKISEELGVSKSPVREALAQLRDEGLVSIEPQKGARV | 0.213 |
| HMISDEELLVSTKKEIMSLATVLTKTDKKDDAIAIMKEYDPAANPNRIKDVNKAKELLERLQKLG | -0.125 |
| HMEYRVRDKMTDILELLTEHRGRIALRDAFPTGTREELLAAFLALLELTKMQTVIVYQDRLYDDIQIVMK | -0.204 |
| HMNTKLKPLYLLDIFREMTDERHRMTVPELLEELQRRGITAERKGIYRDIDALIQYGADIKHTGTGYYLAR | -0.561 |
| HMTPYEVLVYESLKQKILSGGYAAGEKIPEQSVSEELGVSRSPLRSAIRRLASEGLIEYYPYRGAFVKA | -0.347 |
| HMRMTKQRQAVLDELTRVTDFRSAQQIFEDLHSQGHRVGLATIYRSLQGLAEDGSVDTLRSSDGESLY | -0.0884 |
| HMKQNNYATKKELNFFVSRLISLLSYRDFFNPIEKKESMINNIEAIFTRSSLTSQELRTLHGIISNLVE | -3.07 |
| HMIDQSVVVQYLSKLTNTPYLKTREITMGEPYMQFERGEIKFQEYVEDIRALLPGGDRIDADRLRDIWMNS | -1.22 |
| HMSVETSDLLPLIEQVLSLNPDKVKEYQNGKKGLLGFFMGQIKQTAGVAIDVGTLKPLLEDALHKDL | -0.493 |
| HMQTGYHVRITASTLNVRRDHSASSAVATQVRRGEVYTIVDEYNNGGTLWGKLKSGAGWIALKYTQS | -1.81 |
| HMDKVEQLMQNPVIQEKMSEGDRELLRNASLVVLGRLEDDGSIIQRFVELFGEEAYERLKSELM | 0.259 |
| HMYESAMSDLHARIMSSDDPHGEIYKMLTQSGPEAKYIQDMYNETSIDRGLHPDDDFEDIIDAMVAELDD | -0.479 |
| HMPSSIEGIEKYLGSGMIRGIGAVYAKRLVKQFGKDVFDIIEETPERLREVEGIGPIRAARIISGWADQ | -0.41 |
| HMILKQTHIVQELTGPIRLQEYGVGIFQQISTKSALKKALKKNQITVDGVVGSTATFIKGGEIIIYHVTE | -2.75 |
| HMIRSNLAEQAYAQLKALIHDFQLLPGDRFSENEMGTRLGVSRTPVREALFRLRNEGFLEVESKAGWYVK | -2.38 |
| HMAGPGAEVVDRLIAVLTGERPATAADQVLLSILKGLGIGGVVLPSERTGLGWSGLYQRVKEITDMN | -1.29 |
| HMNTGFPIILETSDAANLTVGAPIMYRGVEVGKIRNMELNSLGDRVLIHILIGHKYQHLVRQNSEFWFSS | -4.54 |
| HMQYPSSLDSRAKQSLYDNLERNEILALALDNVIQSNKLDGWRDGGIKERKLRLAINNLLKNDEHTDNIME | -0.0155 |
| HMDLDIGSVLQASRGEKKISLRQLAERTGLTASMLSQIERNLVNPSINTLKVIAAALEIPMYKFFMG | -0.835 |
| HMHLKRQEAINLGAYLLGAELRIHRLSLEELGSERIDEMLAAINYKTLDDLLADIGLGNRPARFVARQLG | -1.53 |
| HMRVKLVKKSILASGGENIRVDKFLSNHILTMTRTQIKKLFLDGLVQVNKSFVKPGSILKGNEIITFSIPE | -1.8 |
| HMKKAENEKLNIPYDVTEFLASSIKDDIRMMEGAMVKLLALSSLTKQDITQSLAKRVIQDVLGSSA | -0.097 |
| HMNLAISAYQQLKSDIIRGVYAPGEKLLMSRLKVRYGLGIGPMREALSQLVSEHLVTAASQRGYRVAGM | -1.64 |

| Sequence | soluble fraction (log2) |
| --- | --- |
| HMRKKIIAQTLEEIRKSKGYSQKQVAAFIKVKPTTYNTYESGRTEPPAEILVRLSYLYRTPVDTLVQRDR | -2.07 |
| HMRGWGTVKRRTPKSGRYRASYIGPDGKRYAADHTYAAKVDADAWLSSERALITAGVWTPPTDRVT | -0.286 |
| HMDEEGDALDREYEDQIRLGDEAFDAEDWTSAQRAYTAALELRPDERYPKNRLRRLASLQEDV | 0.0779 |
| HMDTPMQEAVLQRLRDKVAQAAAGSKLPTVRQLIADYGVGQHVIQAALEKLRTEGLITSHVGKGTFVG | 0.447 |
| HMELGWYVRLRRRELGLSVTALAEKAGMSQSYLSQIETGDRGNPSPESLRSLAEALEVSPRELESLV | -0.331 |
| HMSFMPDPSIHDAITYTVRSGDYLGKISTTFGVKVSDLQKWNSIKSNIIYPGQKLTVWVSSNKRESLQ | -1.31 |
| HMPRYSGMFAAWLHKALARMGKSMSDSARSAFTERVELDYSSANNELQKLSLLVGDRKVITEADVMRAIG | -0.292 |
| HMSDRFVRIVMNDGTVKLGQMISEDADFIRLKTNNLGELNIPKYLVLDMMDLTRSEYVRLSISNAG | 0.169 |
| HMVLIQNEDVKDISNYPLLSSVPVFDVFNNKMIIPTFNKDSFNPLIYNFNFNSKRRLIYRVDNTNYLIVIK | 0.0177 |
| HMRTKEGLASQLEKIPGIGPVKRKALLKKFGSIDAIAAASKEELMLTDGITSSLADAIRDYF | 0.00122 |
| HMPAAPVFLQKDLLDAGLIGQADSAARREKLGKILGIGYGNGKVMLQRLNSFGIERDAFEQAVQE | 0.0718 |
| HMIALLRLGTAPDIKAQAPLATILARHNGEMSAKDLWQRFGGEIDTFYAQLKTEVAHGWILEPT | -0.617 |
| HMDREILWTNYVAARKQEFIASSIDTIGAEYLDNRRFWDTQFEREWTIIAERLASGFGLTDDILSIVGSDF | -4.12 |
| HMETGNEDYRVGKELAYDGNYKAATIYLMKSIKDDPNNPDAFNMLGFSHRKLGNNDEAYIYYNKALEL | -0.387 |
| HMQEKIREVANRIRELRESLEVSPEEMADHLKVTIGTYIEYERGEADIPASVLFGIAHRLNVDMAVLL | 0.142 |
| HMSESGTFRAEAADAGRRLDVALAERLRLSRAAAQRLIAAGLVLVEGSPARKRQILHAGETVAWRAAPP | -0.127 |
| HMKAAQDQDQAATLLQKATGVNQDQAKLAATVLFKEQSVTPIRQAIASGDYYQAYQDAKSLQQQ | -0.144 |
| HMGLYPYSGTPADNQEANERRIFDIYSTHLERIFSDFSGATLRTKRLVLRLMQELVHSDPVRMAGILDEL | 0.00204 |
| HMSNVIYFNYNDYKFLFMGDAGVDKETDILEKYTLSNIDFLKVGHHGSDTSSNKGFIDSIQPKYSLIS | -1.07 |
| HMTEEVIIQNYIGKNFNDVRDELEAKGITVDEPNMKYSDEFKENTIMAQSIKPGQPLKPGGFNSIKFDVS | 0.211 |
| HMENPLETYYSQWVSAIKREHPEASFVKDTDGKYYVEGLTKNRLAVIYENPHLVRLVNATTNLHVE | -0.305 |
| HMENLIEELTAKNKEYIHSVTKQLILVGKSDEEVKEILNDILPQIIEGQKSGIIARKLLGAPTEFVSQYQP | 0.011 |
| HMEMGNKIKELRTKLGITQEELSKTLNVSSQAVSKWENGGLPDLELIPEIAKYFNVTTDYLFDIK | 0.0658 |
| HMPDAENFRYRVPYTTEQNRLQYYEGDIRAENADKARDQVMQDAQKYFAQNTAFTPNYIDTDIISLD | 0.034 |
| HMVTQVDYGTFLTRIDEGKVKSVEIQDNQIAFTAIDEAGKENIYVTGKVNDPELVDRLLAADIEDFSQVIP | 0.12 |
| HMNPASVLDGLKITSFSPTRAIVAGPGGSRIVFDNEAVVLGGIEWDVHIQRNGIEFTSQGQTVLLLFDRS | -1.21 |
| HMAHKRVDGTIVTPLTADTIVLRTGTHGEQPFEIRDTTRHKLESLQKGDMVILLIDTDNKVIDVAIPP | 0.423 |
